According to PMC9482650, “Quantitative fragmentomics allow affinity mapping of interactomes” (Nature Communications, 2022):

Key:
Test in all cases: holdup assay
Design in all cases: key: below the threshold = too weak to quantify, mostly under pKd 3.1 to 4
Inadl_3, Q8NI35 = target: Inadl_3, Q8NI35
DLG3_2, Q92796 = target: T1, DLG3_2, Q92796
T1 sequence (Q92796 221-321, limits assumed, looked up): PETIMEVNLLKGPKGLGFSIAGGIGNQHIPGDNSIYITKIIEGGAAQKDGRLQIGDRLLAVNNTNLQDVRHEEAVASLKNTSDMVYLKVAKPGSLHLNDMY

APBA1_1, Q02410 = target: T2, APBA1_1, Q02410
T2 sequence (Q02410 651-752, limits assumed, looked up): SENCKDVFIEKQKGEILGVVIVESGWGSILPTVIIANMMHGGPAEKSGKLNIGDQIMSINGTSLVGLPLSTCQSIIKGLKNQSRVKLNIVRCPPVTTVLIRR

DLG3_3, Q92796 = target: T3, DLG3_3, Q92796
T3 sequence (Q92796 374-475, limits assumed, looked up): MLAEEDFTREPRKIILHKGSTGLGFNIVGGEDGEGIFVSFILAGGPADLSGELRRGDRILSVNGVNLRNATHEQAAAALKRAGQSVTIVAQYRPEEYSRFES

CASK, O14936 = target: CASK, O14936
MAGI2_4, Q86UL8 = target: MAGI2_4, Q86UL8
GIPC2, Q8TF65 = target: GIPC2, Q8TF65
MAGI2_6, Q86UL8 = target: MAGI2_6, Q86UL8
LNX1_1, Q8TBB1 = target: LNX1_1, Q8TBB1
LNX1_2, Q8TBB1 = target: LNX1_2, Q8TBB1
TJP1_3, Q07157 = target: TJP1_3, Q07157
Inadl_8, Q8NI35 = target: Inadl_8, Q8NI35
DLG4_2, P78352 = target: DLG4_2, P78352
Inadl_9, Q8NI35 = target: Inadl_9, Q8NI35
NHERF4_4, Q86UT5 = target: NHERF4_4, Q86UT5
LIN7B, Q9HAP6 = target: T4, LIN7B, Q9HAP6
T4 sequence (Q9HAP6 88-185, limits assumed, looked up): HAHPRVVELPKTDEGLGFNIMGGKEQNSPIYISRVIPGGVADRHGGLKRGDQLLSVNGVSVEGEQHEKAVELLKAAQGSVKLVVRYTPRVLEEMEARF

DLG3_1, Q92796 = target: T5, DLG3_1, Q92796
T5 sequence (Q92796 125-227, limits assumed, looked up): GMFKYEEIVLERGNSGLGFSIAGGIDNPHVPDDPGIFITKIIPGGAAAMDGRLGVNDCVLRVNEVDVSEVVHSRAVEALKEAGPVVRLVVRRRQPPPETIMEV

NHERF3_3, Q5T2W1 = target: T6, NHERF3_3, Q5T2W1
T6 sequence (Q5T2W1 238-333, limits assumed, looked up): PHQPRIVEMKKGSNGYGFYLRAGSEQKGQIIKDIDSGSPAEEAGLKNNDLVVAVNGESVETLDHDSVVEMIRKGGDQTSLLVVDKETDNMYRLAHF

FRMPD2_3, Q68DX3 = target: FRMPD2_3, Q68DX3
TX1BP3, O14907 = target: T7, TX1BP3, O14907
T7 sequence (O14907 10-122, limits assumed, looked up): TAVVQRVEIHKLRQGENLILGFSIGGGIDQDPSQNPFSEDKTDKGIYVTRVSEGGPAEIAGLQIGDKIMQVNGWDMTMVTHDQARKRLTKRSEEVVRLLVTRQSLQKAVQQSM

MAGI1_1, Q96QZ7 = target: MAGI1_1, Q96QZ7
TJP3_3, O95049 = target: T8, TJP3_3, O95049
T8 sequence (O95049 375-456, limits assumed, looked up): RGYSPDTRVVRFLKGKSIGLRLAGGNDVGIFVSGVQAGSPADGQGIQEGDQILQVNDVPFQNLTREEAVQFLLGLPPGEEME

GRIP1_2, Q9Y3R0 = target: T9, GRIP1_2, Q9Y3R0
T9 sequence (Q9Y3R0 145-248, limits assumed, looked up): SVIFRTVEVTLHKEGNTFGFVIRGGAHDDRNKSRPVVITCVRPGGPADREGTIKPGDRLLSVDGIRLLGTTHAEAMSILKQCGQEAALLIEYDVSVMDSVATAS

MPP2, Q14168 = target: T10, MPP2, Q14168
T10 sequence (Q14168 180-250, limits assumed, looked up): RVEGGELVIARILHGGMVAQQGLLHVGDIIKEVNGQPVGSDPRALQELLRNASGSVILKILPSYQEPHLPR

SNTG1, Q9NSN8 = target: T11, SNTG1, Q9NSN8
T11 sequence (Q9NSN8 52-150, limits assumed, looked up): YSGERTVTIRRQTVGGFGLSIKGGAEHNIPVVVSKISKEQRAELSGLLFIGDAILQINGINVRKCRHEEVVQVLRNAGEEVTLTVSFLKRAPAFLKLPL

PTPN13_1, Q12923 = target: T12, PTPN13_1, Q12923
T12 sequence (Q12923 1088-1188, limits assumed, looked up): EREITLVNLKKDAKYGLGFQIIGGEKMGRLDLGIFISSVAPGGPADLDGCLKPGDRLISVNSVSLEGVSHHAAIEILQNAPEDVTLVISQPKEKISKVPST

[1] = plain residues with an end cap or a label only (N-terminal biotin on a linker: ttds)
[2] = plain residues with an end cap or a label only (N-terminal biotin on a linker: ahx)

Chain of GIPC2, Q8TF65 (Q8TF65 112-203): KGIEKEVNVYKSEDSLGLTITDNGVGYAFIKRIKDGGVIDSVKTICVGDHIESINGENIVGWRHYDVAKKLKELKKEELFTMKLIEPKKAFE
Chain of MAGI2_4, Q86UL8 (Q86UL8 772-865): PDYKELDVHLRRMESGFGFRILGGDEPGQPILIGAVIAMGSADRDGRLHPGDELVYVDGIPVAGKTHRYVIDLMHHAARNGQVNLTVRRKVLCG
Chain of Inadl_3, Q8NI35 (Q8NI35 359-469): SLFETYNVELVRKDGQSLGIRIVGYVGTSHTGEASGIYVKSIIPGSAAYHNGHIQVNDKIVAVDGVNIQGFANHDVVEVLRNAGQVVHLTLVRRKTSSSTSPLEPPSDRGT
Chain of Inadl_8, Q8NI35 (Q8NI35 1425-1530): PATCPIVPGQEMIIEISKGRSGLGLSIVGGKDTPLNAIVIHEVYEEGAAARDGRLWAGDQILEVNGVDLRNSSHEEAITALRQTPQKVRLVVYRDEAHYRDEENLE
Chain of Inadl_9, Q8NI35 (Q8NI35 1530-1615): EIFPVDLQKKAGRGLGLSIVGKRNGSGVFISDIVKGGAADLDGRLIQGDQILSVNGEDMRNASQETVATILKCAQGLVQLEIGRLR
Chain of MAGI2_6, Q86UL8 (Q86UL8 1141-1229): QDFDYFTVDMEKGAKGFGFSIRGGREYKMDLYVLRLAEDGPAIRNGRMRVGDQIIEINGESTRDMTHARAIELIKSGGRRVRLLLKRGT
Chain of LNX1_2, Q8TBB1 (Q8TBB1 371-470): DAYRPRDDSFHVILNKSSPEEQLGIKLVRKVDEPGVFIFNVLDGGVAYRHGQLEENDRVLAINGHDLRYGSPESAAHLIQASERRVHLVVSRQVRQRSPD
Chain of FRMPD2_3, Q68DX3 (Q68DX3 1073-1166): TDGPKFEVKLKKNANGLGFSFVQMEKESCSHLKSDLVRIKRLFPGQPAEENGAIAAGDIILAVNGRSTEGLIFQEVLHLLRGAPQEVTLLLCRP
Chain of LNX1_1, Q8TBB1 (Q8TBB1 261-371): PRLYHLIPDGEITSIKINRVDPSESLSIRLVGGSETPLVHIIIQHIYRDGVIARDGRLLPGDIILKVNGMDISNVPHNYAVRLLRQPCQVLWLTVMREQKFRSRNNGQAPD
Chain of NHERF4_4, Q86UT5 (Q86UT5 464-550): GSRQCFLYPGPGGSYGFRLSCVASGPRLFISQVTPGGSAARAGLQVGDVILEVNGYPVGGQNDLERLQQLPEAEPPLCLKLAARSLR
Chain of CASK, O14936 (O14936 487-570): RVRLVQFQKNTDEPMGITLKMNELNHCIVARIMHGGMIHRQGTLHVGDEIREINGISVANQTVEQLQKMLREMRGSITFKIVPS
Chain of MAGI1_1, Q96QZ7 (Q96QZ7 1-106): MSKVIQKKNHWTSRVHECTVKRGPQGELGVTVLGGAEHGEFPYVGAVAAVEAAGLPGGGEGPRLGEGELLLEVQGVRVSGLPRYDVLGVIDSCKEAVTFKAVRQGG
Chain of DLG4_2, P78352 (P78352 155-259): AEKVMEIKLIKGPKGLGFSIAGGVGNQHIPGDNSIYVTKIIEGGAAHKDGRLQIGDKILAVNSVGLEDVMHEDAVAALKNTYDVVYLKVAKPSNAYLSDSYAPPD
Chain of TJP1_3, Q07157 (Q07157 416-512): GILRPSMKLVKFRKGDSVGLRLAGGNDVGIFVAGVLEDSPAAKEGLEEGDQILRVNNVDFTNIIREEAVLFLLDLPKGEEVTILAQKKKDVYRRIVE

B1: TMIGD1, Q6UXZ0 (peptide)
chain: DKDPHSETAL
pKd (Inadl_3, Q8NI35; [1]): below the threshold
pKd (DLG3_2, Q92796; [1]): below the threshold
pKd (APBA1_1, Q02410; [1]): below the threshold
pKd (DLG3_3, Q92796; [1]): below the threshold
pKd (CASK, O14936; [1]): below the threshold
pKd (MAGI2_4, Q86UL8; [1]): below the threshold
pKd (GIPC2, Q8TF65; [1]): below the threshold
pKd (MAGI2_6, Q86UL8; [1]): 3.79
pKd (LNX1_1, Q8TBB1; [1]): below the threshold
pKd (LNX1_2, Q8TBB1; [1]): below the threshold
pKd (TJP1_3, Q07157; [1]): below the threshold
pKd (Inadl_8, Q8NI35; [1]): below the threshold
pKd (DLG4_2, P78352; [1]): 3.78
pKd (Inadl_9, Q8NI35; [1]): below the threshold
pKd (NHERF4_4, Q86UT5; [1]): below the threshold
pKd (LIN7B, Q9HAP6; [1]): below the threshold
pKd (DLG3_1, Q92796; [1]): below the threshold
pKd (NHERF3_3, Q5T2W1; [1]): below the threshold
pKd (FRMPD2_3, Q68DX3; [1]): below the threshold
pKd (TX1BP3, O14907; [1]): 4.03
pKd (MAGI1_1, Q96QZ7; [1]): below the threshold
pKd (TJP3_3, O95049; [1]): 3.49
pKd (GRIP1_2, Q9Y3R0; [1]): below the threshold
pKd (MPP2, Q14168; [1]): below the threshold
pKd (SNTG1, Q9NSN8; [1]): 4.1
pKd (PTPN13_1, Q12923; [1]): below the threshold

B2: KCTD3, Q9Y597 (peptide)
chain: SDSSGQEYSL
pKd (Inadl_3, Q8NI35; [2]): below the threshold
pKd (DLG3_2, Q92796; [2]): below the threshold
pKd (APBA1_1, Q02410; [2]): below the threshold
pKd (DLG3_3, Q92796; [2]): below the threshold
pKd (CASK, O14936; [2]): below the threshold
pKd (MAGI2_4, Q86UL8; [2]): below the threshold
pKd (GIPC2, Q8TF65; [2]): 3.64
pKd (MAGI2_6, Q86UL8; [2]): below the threshold
pKd (LNX1_1, Q8TBB1; [2]): below the threshold
pKd (LNX1_2, Q8TBB1; [2]): below the threshold
pKd (TJP1_3, Q07157; [2]): below the threshold
pKd (Inadl_8, Q8NI35; [2]): below the threshold
pKd (DLG4_2, P78352; [2]): below the threshold
pKd (Inadl_9, Q8NI35; [2]): below the threshold
pKd (NHERF4_4, Q86UT5; [2]): below the threshold
pKd (LIN7B, Q9HAP6; [2]): below the threshold
pKd (DLG3_1, Q92796; [2]): below the threshold
pKd (NHERF3_3, Q5T2W1; [2]): below the threshold
pKd (FRMPD2_3, Q68DX3; [2]): below the threshold
pKd (TX1BP3, O14907; [2]): below the threshold
pKd (MAGI1_1, Q96QZ7; [2]): below the threshold
pKd (TJP3_3, O95049; [2]): below the threshold
pKd (GRIP1_2, Q9Y3R0; [2]): below the threshold
pKd (MPP2, Q14168; [2]): below the threshold
pKd (SNTG1, Q9NSN8; [2]): below the threshold
pKd (PTPN13_1, Q12923; [2]): below the threshold

B3: HPV59-E6, Q81964 (peptide)
chain: QRQARSETLV
pKd (Inadl_3, Q8NI35; [1]): below the threshold
pKd (DLG3_2, Q92796; [1]): 5.17
pKd (APBA1_1, Q02410; [1]): below the threshold
pKd (DLG3_3, Q92796; [1]): 4.51
pKd (CASK, O14936; [1]): below the threshold
pKd (MAGI2_4, Q86UL8; [1]): 5.71
pKd (GIPC2, Q8TF65; [1]): below the threshold
pKd (MAGI2_6, Q86UL8; [1]): 3.74
pKd (LNX1_1, Q8TBB1; [1]): below the threshold
pKd (LNX1_2, Q8TBB1; [1]): 4.25
pKd (TJP1_3, Q07157; [1]): below the threshold
pKd (Inadl_8, Q8NI35; [1]): below the threshold
pKd (DLG4_2, P78352; [1]): 5.45
pKd (Inadl_9, Q8NI35; [1]): below the threshold
pKd (NHERF4_4, Q86UT5; [1]): below the threshold
pKd (LIN7B, Q9HAP6; [1]): below the threshold
pKd (DLG3_1, Q92796; [1]): 4.58
pKd (NHERF3_3, Q5T2W1; [1]): below the threshold
pKd (FRMPD2_3, Q68DX3; [1]): below the threshold
pKd (TX1BP3, O14907; [1]): 4.05
pKd (MAGI1_1, Q96QZ7; [1]): below the threshold
pKd (TJP3_3, O95049; [1]): 3.7
pKd (GRIP1_2, Q9Y3R0; [1]): below the threshold
pKd (MPP2, Q14168; [1]): below the threshold
pKd (SNTG1, Q9NSN8; [1]): 4.17
pKd (PTPN13_1, Q12923; [1]): below the threshold

B4: SHROOM4, Q9ULL8 (peptide)
chain: ESLLLGPSNF
pKd (Inadl_3, Q8NI35; [2]): 3.59
pKd (DLG3_2, Q92796; [2]): below the threshold
pKd (APBA1_1, Q02410; [2]): below the threshold
pKd (DLG3_3, Q92796; [2]): below the threshold
pKd (CASK, O14936; [2]): below the threshold
pKd (MAGI2_4, Q86UL8; [2]): below the threshold
pKd (GIPC2, Q8TF65; [2]): below the threshold
pKd (MAGI2_6, Q86UL8; [2]): below the threshold
pKd (LNX1_1, Q8TBB1; [2]): below the threshold
pKd (LNX1_2, Q8TBB1; [2]): below the threshold
pKd (TJP1_3, Q07157; [2]): below the threshold
pKd (Inadl_8, Q8NI35; [2]): 3.57
pKd (DLG4_2, P78352; [2]): below the threshold
pKd (Inadl_9, Q8NI35; [2]): below the threshold
pKd (NHERF4_4, Q86UT5; [2]): below the threshold
pKd (LIN7B, Q9HAP6; [2]): below the threshold
pKd (DLG3_1, Q92796; [2]): below the threshold
pKd (NHERF3_3, Q5T2W1; [2]): below the threshold
pKd (FRMPD2_3, Q68DX3; [2]): below the threshold
pKd (TX1BP3, O14907; [2]): below the threshold
pKd (MAGI1_1, Q96QZ7; [2]): below the threshold
pKd (TJP3_3, O95049; [2]): below the threshold
pKd (GRIP1_2, Q9Y3R0; [2]): below the threshold
pKd (MPP2, Q14168; [2]): below the threshold
pKd (SNTG1, Q9NSN8; [2]): below the threshold
pKd (PTPN13_1, Q12923; [2]): below the threshold

B5: SLC4A7, Q9Y6M7 (peptide)
chain: KKYVDAETSL
pKd (Inadl_3, Q8NI35; [1]): below the threshold
pKd (DLG3_2, Q92796; [1]): 3.91
pKd (APBA1_1, Q02410; [1]): below the threshold
pKd (DLG3_3, Q92796; [1]): 3.79
pKd (CASK, O14936; [1]): below the threshold
pKd (MAGI2_4, Q86UL8; [1]): below the threshold
pKd (GIPC2, Q8TF65; [1]): 3.68
pKd (MAGI2_6, Q86UL8; [1]): 3.68
pKd (LNX1_1, Q8TBB1; [1]): below the threshold
pKd (LNX1_2, Q8TBB1; [1]): below the threshold
pKd (TJP1_3, Q07157; [1]): below the threshold
pKd (Inadl_8, Q8NI35; [1]): below the threshold
pKd (DLG4_2, P78352; [1]): below the threshold
pKd (Inadl_9, Q8NI35; [1]): below the threshold
pKd (NHERF4_4, Q86UT5; [1]): below the threshold
pKd (LIN7B, Q9HAP6; [1]): 3.53
pKd (DLG3_1, Q92796; [1]): 3.49
pKd (NHERF3_3, Q5T2W1; [1]): below the threshold
pKd (FRMPD2_3, Q68DX3; [1]): below the threshold
pKd (TX1BP3, O14907; [1]): 3.82
pKd (MAGI1_1, Q96QZ7; [1]): below the threshold
pKd (TJP3_3, O95049; [1]): below the threshold
pKd (GRIP1_2, Q9Y3R0; [1]): below the threshold
pKd (MPP2, Q14168; [1]): below the threshold
pKd (SNTG1, Q9NSN8; [1]): 3.82
pKd (PTPN13_1, Q12923; [1]): below the threshold
